The assay has as its target recombinant human collagen XVIII fragment endostatin (Entremed, Inc) (human) (UniProt P39060). Kind of assay: ELISA; protein incubated with DXS500k or buffer immobilized, overlaid with tPA in 10 mM εACA. Background: ELISA stands for enzyme-linked immunosorbent assay.

Tissue-type plasminogen activator (tPA, Actilyse, Boehringer-Ingelheim), sequence (P00750 36-562 limits assumed): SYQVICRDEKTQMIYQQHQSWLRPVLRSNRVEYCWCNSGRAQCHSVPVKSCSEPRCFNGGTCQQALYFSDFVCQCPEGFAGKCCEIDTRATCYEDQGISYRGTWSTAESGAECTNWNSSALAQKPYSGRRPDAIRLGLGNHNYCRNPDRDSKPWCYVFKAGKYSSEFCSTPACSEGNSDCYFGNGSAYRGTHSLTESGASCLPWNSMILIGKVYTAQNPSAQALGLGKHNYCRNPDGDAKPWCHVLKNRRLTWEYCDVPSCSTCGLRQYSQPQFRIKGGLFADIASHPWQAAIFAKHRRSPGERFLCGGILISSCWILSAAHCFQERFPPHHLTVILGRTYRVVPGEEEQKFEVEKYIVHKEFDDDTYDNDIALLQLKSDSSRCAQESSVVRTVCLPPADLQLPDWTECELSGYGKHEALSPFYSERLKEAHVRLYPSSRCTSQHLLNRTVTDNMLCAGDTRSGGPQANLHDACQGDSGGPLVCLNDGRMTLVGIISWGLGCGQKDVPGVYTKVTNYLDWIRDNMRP

On to “Tissue-type plasminogen activator (tPA, Actilyse, Boehringer-Ingelheim) (from UniProt P00750 36-562) (enzyme)”, for which the factor of increase in tPA binding (protein exposed to DXS500k against protein in buffer only) came out at 10.5 fold.

Values taken from patent publication US20080118529A1.
